Consider seven molecules from EP4692114A1, “CALCITONIN ANALOGUE, AND DERIVATIVE THEREOF AND USE THEREOF” (Hangzhou Sciwind Biosciences Co., Ltd., priority 2023, dated 2024).

*1 amine or outer side, *2 acyl side, *3 side chain or, on linkers, in order; H or OH if unused. The star is where a group is joined. C22 diacid = O=C(O)CCCCCCCCCCCCCCCCCCCCC(=O)*; C20 diacid = O=C(O)CCCCCCCCCCCCCCCCCCC(=O)*; γGlu = O=C(O)[C@H](CCC(=O)[*:2])N[*:1]; AEEA = NCCOCCOCC(=O)O

The chains are these.
T1: human amylin receptor (AMY3) on CHO-K1/Gal5/AMY3 cells (human, UniProt P30988 25-474; O60896 24-148)
T1 sequence (looked up) 1: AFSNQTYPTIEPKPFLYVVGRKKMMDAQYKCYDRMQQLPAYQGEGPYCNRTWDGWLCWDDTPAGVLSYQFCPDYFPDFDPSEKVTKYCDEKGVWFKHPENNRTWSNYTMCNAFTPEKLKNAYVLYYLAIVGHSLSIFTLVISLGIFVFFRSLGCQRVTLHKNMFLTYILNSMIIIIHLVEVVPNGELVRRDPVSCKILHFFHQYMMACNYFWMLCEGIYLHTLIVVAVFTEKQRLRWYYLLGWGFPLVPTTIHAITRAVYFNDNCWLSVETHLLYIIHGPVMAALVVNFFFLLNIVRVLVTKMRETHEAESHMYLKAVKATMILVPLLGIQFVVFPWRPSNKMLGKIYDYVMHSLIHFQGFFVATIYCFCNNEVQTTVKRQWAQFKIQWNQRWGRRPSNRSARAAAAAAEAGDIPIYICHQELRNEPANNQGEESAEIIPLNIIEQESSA
T1 sequence (looked up) 2: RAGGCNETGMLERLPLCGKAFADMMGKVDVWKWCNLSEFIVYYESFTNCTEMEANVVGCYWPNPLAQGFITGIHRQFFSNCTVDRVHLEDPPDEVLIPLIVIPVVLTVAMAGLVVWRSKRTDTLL

B1: calcitonin derivative M20 (peptide)
peptide: {C20 diacid-γGlu}-ASQLSTAVLGRLSQELHRLQDYPRTDVGAESP-NH2
SMILES: CC(C)C[C@H](NC(=O)[C@H](CCCNC(=N)N)NC(=O)CNC(=O)[C@H](CC(C)C)NC(=O)[C@@H](NC(=O)[C@H](C)NC(=O)[C@@H](NC(=O)[C@H](CO)NC(=O)[C@H](CC(C)C)NC(=O)[C@H](CCC(N)=O)NC(=O)[C@H](CO)NC(=O)[C@H](C)NC(=O)CC[C@H](NC(=O)CCCCCCCCCCCCCCCCCCC(=O)O)C(=O)O)[C@@H](C)O)C(C)C)C(=O)N[C@@H](CO)C(=O)N[C@@H](CCC(N)=O)C(=O)N[C@@H](CCC(=O)O)C(=O)N[C@@H](CC(C)C)C(=O)N[C@@H](Cc1c[nH]cn1)C(=O)N[C@@H](CCCNC(=N)N)C(=O)N[C@@H](CC(C)C)C(=O)N[C@@H](CCC(N)=O)C(=O)N[C@@H](CC(=O)O)C(=O)N[C@@H](Cc1ccc(O)cc1)C(=O)N1CCC[C@H]1C(=O)N[C@@H](CCCNC(=N)N)C(=O)N[C@H](C(=O)N[C@@H](CC(=O)O)C(=O)N[C@H](C(=O)NCC(=O)N[C@@H](C)C(=O)N[C@@H](CCC(=O)O)C(=O)N[C@@H](CO)C(=O)N1CCC[C@H]1C(N)=O)C(C)C)[C@@H](C)O
B2: calcitonin derivative M18 (peptide)
peptide: {C20 diacid-γGlu}-ASQLSTAVLGRLSQELHRLQDLPRTDVGSGSP-NH2
SMILES: CC(C)C[C@H](NC(=O)[C@H](CCCNC(=N)N)NC(=O)CNC(=O)[C@H](CC(C)C)NC(=O)[C@@H](NC(=O)[C@H](C)NC(=O)[C@@H](NC(=O)[C@H](CO)NC(=O)[C@H](CC(C)C)NC(=O)[C@H](CCC(N)=O)NC(=O)[C@H](CO)NC(=O)[C@H](C)NC(=O)CC[C@H](NC(=O)CCCCCCCCCCCCCCCCCCC(=O)O)C(=O)O)[C@@H](C)O)C(C)C)C(=O)N[C@@H](CO)C(=O)N[C@@H](CCC(N)=O)C(=O)N[C@@H](CCC(=O)O)C(=O)N[C@@H](CC(C)C)C(=O)N[C@@H](Cc1c[nH]cn1)C(=O)N[C@@H](CCCNC(=N)N)C(=O)N[C@@H](CC(C)C)C(=O)N[C@@H](CCC(N)=O)C(=O)N[C@@H](CC(=O)O)C(=O)N[C@@H](CC(C)C)C(=O)N1CCC[C@H]1C(=O)N[C@@H](CCCNC(=N)N)C(=O)N[C@H](C(=O)N[C@@H](CC(=O)O)C(=O)N[C@H](C(=O)NCC(=O)N[C@@H](CO)C(=O)NCC(=O)N[C@@H](CO)C(=O)N1CCC[C@H]1C(N)=O)C(C)C)[C@@H](C)O
B3: calcitonin derivative M35 (peptide)
peptide: {C20 diacid-γGlu}-RSQLSTDVLGRLSQELHRLQDYPRTDVGSGSP-NH2
SMILES: CC(C)C[C@H](NC(=O)[C@H](CCCNC(=N)N)NC(=O)CNC(=O)[C@H](CC(C)C)NC(=O)[C@@H](NC(=O)[C@H](CC(=O)O)NC(=O)[C@@H](NC(=O)[C@H](CO)NC(=O)[C@H](CC(C)C)NC(=O)[C@H](CCC(N)=O)NC(=O)[C@H](CO)NC(=O)[C@H](CCCNC(=N)N)NC(=O)CC[C@H](NC(=O)CCCCCCCCCCCCCCCCCCC(=O)O)C(=O)O)[C@@H](C)O)C(C)C)C(=O)N[C@@H](CO)C(=O)N[C@@H](CCC(N)=O)C(=O)N[C@@H](CCC(=O)O)C(=O)N[C@@H](CC(C)C)C(=O)N[C@@H](Cc1c[nH]cn1)C(=O)N[C@@H](CCCNC(=N)N)C(=O)N[C@@H](CC(C)C)C(=O)N[C@@H](CCC(N)=O)C(=O)N[C@@H](CC(=O)O)C(=O)N[C@@H](Cc1ccc(O)cc1)C(=O)N1CCC[C@H]1C(=O)N[C@@H](CCCNC(=N)N)C(=O)N[C@H](C(=O)N[C@@H](CC(=O)O)C(=O)N[C@H](C(=O)NCC(=O)N[C@@H](CO)C(=O)NCC(=O)N[C@@H](CO)C(=O)N1CCC[C@H]1C(N)=O)C(C)C)[C@@H](C)O
B4: calcitonin derivative M50 (peptide)
peptide: {C20 diacid-γGlu}-ASQLSTAVLGRLSDELHRLQDLPRTDVGSGSP-NH2
SMILES: CC(C)C[C@H](NC(=O)[C@H](CCCNC(=N)N)NC(=O)CNC(=O)[C@H](CC(C)C)NC(=O)[C@@H](NC(=O)[C@H](C)NC(=O)[C@@H](NC(=O)[C@H](CO)NC(=O)[C@H](CC(C)C)NC(=O)[C@H](CCC(N)=O)NC(=O)[C@H](CO)NC(=O)[C@H](C)NC(=O)CC[C@H](NC(=O)CCCCCCCCCCCCCCCCCCC(=O)O)C(=O)O)[C@@H](C)O)C(C)C)C(=O)N[C@@H](CO)C(=O)N[C@@H](CC(=O)O)C(=O)N[C@@H](CCC(=O)O)C(=O)N[C@@H](CC(C)C)C(=O)N[C@@H](Cc1c[nH]cn1)C(=O)N[C@@H](CCCNC(=N)N)C(=O)N[C@@H](CC(C)C)C(=O)N[C@@H](CCC(N)=O)C(=O)N[C@@H](CC(=O)O)C(=O)N[C@@H](CC(C)C)C(=O)N1CCC[C@H]1C(=O)N[C@@H](CCCNC(=N)N)C(=O)N[C@H](C(=O)N[C@@H](CC(=O)O)C(=O)N[C@H](C(=O)NCC(=O)N[C@@H](CO)C(=O)NCC(=O)N[C@@H](CO)C(=O)N1CCC[C@H]1C(N)=O)C(C)C)[C@@H](C)O
B5: calcitonin derivative M52 (peptide)
peptide: {C20 diacid}-EASQLSTAVLGRLSEELHRLQDYPRTDVGSGSP-NH2
SMILES: CC(C)C[C@H](NC(=O)[C@H](CCCNC(=N)N)NC(=O)CNC(=O)[C@H](CC(C)C)NC(=O)[C@@H](NC(=O)[C@H](C)NC(=O)[C@@H](NC(=O)[C@H](CO)NC(=O)[C@H](CC(C)C)NC(=O)[C@H](CCC(N)=O)NC(=O)[C@H](CO)NC(=O)[C@H](C)NC(=O)[C@H](CCC(=O)O)NC(=O)CCCCCCCCCCCCCCCCCCC(=O)O)[C@@H](C)O)C(C)C)C(=O)N[C@@H](CO)C(=O)N[C@@H](CCC(=O)O)C(=O)N[C@@H](CCC(=O)O)C(=O)N[C@@H](CC(C)C)C(=O)N[C@@H](Cc1c[nH]cn1)C(=O)N[C@@H](CCCNC(=N)N)C(=O)N[C@@H](CC(C)C)C(=O)N[C@@H](CCC(N)=O)C(=O)N[C@@H](CC(=O)O)C(=O)N[C@@H](Cc1ccc(O)cc1)C(=O)N1CCC[C@H]1C(=O)N[C@@H](CCCNC(=N)N)C(=O)N[C@H](C(=O)N[C@@H](CC(=O)O)C(=O)N[C@H](C(=O)NCC(=O)N[C@@H](CO)C(=O)NCC(=O)N[C@@H](CO)C(=O)N1CCC[C@H]1C(N)=O)C(C)C)[C@@H](C)O
B6: calcitonin derivative M67 (peptide)
peptide: {C22 diacid-γGlu-AEEA-AEEA-AEEA-AEEA}-ASQLSTAVLGRLSEELHRLQDYPRTDVGSGSP-NH2
SMILES: CC(C)C[C@H](NC(=O)[C@H](CCCNC(=N)N)NC(=O)CNC(=O)[C@H](CC(C)C)NC(=O)[C@@H](NC(=O)[C@H](C)NC(=O)[C@@H](NC(=O)[C@H](CO)NC(=O)[C@H](CC(C)C)NC(=O)[C@H](CCC(N)=O)NC(=O)[C@H](CO)NC(=O)[C@H](C)NC(=O)COCCOCCNC(=O)COCCOCCNC(=O)COCCOCCNC(=O)COCCOCCNC(=O)CC[C@H](NC(=O)CCCCCCCCCCCCCCCCCCCCC(=O)O)C(=O)O)[C@@H](C)O)C(C)C)C(=O)N[C@@H](CO)C(=O)N[C@@H](CCC(=O)O)C(=O)N[C@@H](CCC(=O)O)C(=O)N[C@@H](CC(C)C)C(=O)N[C@@H](Cc1c[nH]cn1)C(=O)N[C@@H](CCCNC(=N)N)C(=O)N[C@@H](CC(C)C)C(=O)N[C@@H](CCC(N)=O)C(=O)N[C@@H](CC(=O)O)C(=O)N[C@@H](Cc1ccc(O)cc1)C(=O)N1CCC[C@H]1C(=O)N[C@@H](CCCNC(=N)N)C(=O)N[C@H](C(=O)N[C@@H](CC(=O)O)C(=O)N[C@H](C(=O)NCC(=O)N[C@@H](CO)C(=O)NCC(=O)N[C@@H](CO)C(=O)N1CCC[C@H]1C(N)=O)C(C)C)[C@@H](C)O
B7: calcitonin derivative M66 (peptide)
peptide: {C22 diacid-γGlu-AEEA-AEEA}-ASQLSTAVLGRLSEELHRLQDYPRTDVGSGSP-NH2
SMILES: CC(C)C[C@H](NC(=O)[C@H](CCCNC(=N)N)NC(=O)CNC(=O)[C@H](CC(C)C)NC(=O)[C@@H](NC(=O)[C@H](C)NC(=O)[C@@H](NC(=O)[C@H](CO)NC(=O)[C@H](CC(C)C)NC(=O)[C@H](CCC(N)=O)NC(=O)[C@H](CO)NC(=O)[C@H](C)NC(=O)COCCOCCNC(=O)COCCOCCNC(=O)CC[C@H](NC(=O)CCCCCCCCCCCCCCCCCCCCC(=O)O)C(=O)O)[C@@H](C)O)C(C)C)C(=O)N[C@@H](CO)C(=O)N[C@@H](CCC(=O)O)C(=O)N[C@@H](CCC(=O)O)C(=O)N[C@@H](CC(C)C)C(=O)N[C@@H](Cc1c[nH]cn1)C(=O)N[C@@H](CCCNC(=N)N)C(=O)N[C@@H](CC(C)C)C(=O)N[C@@H](CCC(N)=O)C(=O)N[C@@H](CC(=O)O)C(=O)N[C@@H](Cc1ccc(O)cc1)C(=O)N1CCC[C@H]1C(=O)N[C@@H](CCCNC(=N)N)C(=O)N[C@H](C(=O)N[C@@H](CC(=O)O)C(=O)N[C@H](C(=O)NCC(=O)N[C@@H](CO)C(=O)NCC(=O)N[C@@H](CO)C(=O)N1CCC[C@H]1C(N)=O)C(C)C)[C@@H](C)O

The target of the assay is T1, human amylin receptor (AMY3) on …. Put plainly: cell-based or functional assay.
As for B1, the “EC50/nM, CRE-luciferase in amylin receptor/CRE-luc CHO cells” value is 0.017 nM.
For B2 the value was 0.028 nM; for B3, 0.037 nM; for B4, 0.017 nM.
Take B5: the “EC50/nM, CRE-luciferase in amylin receptor/CRE-luc CHO cells” value is 0.017 nM.
Take B6: the “EC50/nM, CRE-luciferase in amylin receptor/CRE-luc CHO cells” value turned out to be 0.017 nM.
Consider B7, for which the “EC50/nM, CRE-luciferase in amylin receptor/CRE-luc CHO cells” value stood at 0.017 nM.
